Results reported in patent publication US20230074436A1 (DENALI THERAPEUTICS, published 2023).
No end group written: not given here. *: point of attachment. Biotin = O=C1N[C@H]2[C@H](CS[C@H]2CCCCC(=O)*)N1

Legend:
asyn_113-127_118A [1] = target: T1, asyn_113-127_118A (human); test: Ala-scan peptide ELISA, row G, run 2
T1 construct: substitution is already in the entry; also called pep7
T1 peptide: Biotin-LEDMPADPDNEAYEM
Protocol: (§1) 96-well Nunc plates were coated with 50 μL per well of 1 μg/mL streptavidin (from Jackson Immuno Research Laboratory) in PBS at 4° C. overnight. The plates were washed three times with PBST, and blocked with PBS containing 3% BSA at room temperature for 1 hour. The N-terminal biotinylated peptides were dissolved in Milli Q water to a concentration of 2 mg/mL, then further diluted to a concentration of 2 μg/mL with PBS. 50 μl of the diluted peptide was applied to the streptavidin-coated plates and incubated at 4° C. overnight. 2 μg/mL of biotinylated human alpha-synuclein was used as the positive control. The plates were washed three times with PBST before use. Purified antibody was diluted by serial dilution methods, from 20 μg/mL to 1 ng/mL, and 50 μL of the antibody solution was added to the peptide-coated wells. The plates were incubated for 1 hour at room temperature, then washed three times with PBST. Secondary detection antibody (goat anti-rat HRP (obtained from Southern Biotech)) was added with 1:5,000 dilutions and incubated for 1 hour at room temperature, then washed three times with PBST. Plates were developed with 50 μL/well of TMB substrate (Thermo Fisher) and quenched with 50 μL/well of 1 N sulfuric acid. The signal was quantified on a BioTek® plate reader at A450. A parallel repeat was performed for each peptide in a separate plate.

asyn_113-127_124G [2] = target: T2, asyn_113-127_124G (human); test: Ala-scan peptide ELISA, row G, run 2
T2 construct: substitution is already in the entry; also called pep13
T2 peptide: Biotin-LEDMPVDPDNEGYEM
Protocol: as §1

asyn_113-127_127A [3] = target: T3, asyn_113-127_127A (human); test: Ala-scan peptide ELISA, row G, run 2
T3 construct: substitution is already in the entry; also called pep17
T3 peptide: Biotin-LEDMPVDPDNEAYEA
Protocol: as §1

asyn_113-127_123A [4] = target: T4, asyn_113-127_123A (human); test: Ala-scan peptide ELISA, row G, run 2
T4 construct: substitution is already in the entry; also called pep12
T4 peptide: Biotin-LEDMPVDPDNAAYEM
Protocol: as §1

asyn_113-127_113A [5] = target: T5, asyn_113-127_113A (human); test: Ala-scan peptide ELISA, row G, run 2
T5 construct: substitution is already in the entry; also called pep2
T5 peptide: Biotin-AEDMPVDPDNEAYEM
Protocol: as §1

[6] = target: T6, biotinylated human alpha-synuclein (human, UniProt P37840 1-140); test: Ala-scan peptide ELISA, row G, run 2
Protocol: as §1

asyn_113-127_120A [7] = target: T7, asyn_113-127_120A (human); test: Ala-scan peptide ELISA, row G, run 2
T7 construct: substitution is already in the entry; also called pep9
T7 peptide: Biotin-LEDMPVDADNEAYEM
Protocol: as §1

asyn_113-127_124P [8] = target: T8, asyn_113-127_124P (human); test: Ala-scan peptide ELISA, row G, run 2
T8 construct: substitution is already in the entry; also called pep14
T8 peptide: Biotin-LEDMPVDPDNEPYEM
Protocol: as §1

asyn_113-127_121A [9] = target: T9, asyn_113-127_121A (human); test: Ala-scan peptide ELISA, row G, run 2
T9 construct: substitution is already in the entry; also called pep10
T9 peptide: Biotin-LEDMPVDPANEAYEM
Protocol: as §1

asyn_113-127_116A [10] = target: T10, asyn_113-127_116A (human); test: Ala-scan peptide ELISA, row G, run 2
T10 construct: substitution is already in the entry; also called pep5
T10 peptide: Biotin-LEDAPVDPDNEAYEM
Protocol: as §1

asyn_113-127_115A [11] = target: T11, asyn_113-127_115A (human); test: Ala-scan peptide ELISA, row G, run 2
T11 construct: substitution is already in the entry; also called pep4
T11 peptide: Biotin-LEAMPVDPDNEAYEM
Protocol: as §1

asyn_113-127_117A [12] = target: T12, asyn_113-127_117A (human); test: Ala-scan peptide ELISA, row G, run 2
T12 construct: substitution is already in the entry; also called pep6
T12 peptide: Biotin-LEDMAVDPDNEAYEM
Protocol: as §1

asyn_113-127 [13] = target: T13, asyn_113-127 (human); test: Ala-scan peptide ELISA, row G, run 2
T13 construct: also called pep1
T13 peptide: Biotin-LEDMPVDPDNEAYEM
Protocol: as §1

asyn_113-127_119A [14] = target: T14, asyn_113-127_119A (human); test: Ala-scan peptide ELISA, row G, run 2
T14 construct: substitution is already in the entry; also called pep8
T14 peptide: Biotin-LEDMPVAPDNEAYEM
Protocol: as §1

asyn_113-127_114A [15] = target: T15, asyn_113-127_114A (human); test: Ala-scan peptide ELISA, row G, run 2
T15 construct: substitution is already in the entry; also called pep3
T15 peptide: Biotin-LADMPVDPDNEAYEM
Protocol: as §1

asyn_113-127_122A [16] = target: T16, asyn_113-127_122A (human); test: Ala-scan peptide ELISA, row G, run 2
T16 construct: substitution is already in the entry; also called pep11
T16 peptide: Biotin-LEDMPVDPDAEAYEM
Protocol: as §1

asyn_113-127_125A [17] = target: T17, asyn_113-127_125A (human); test: Ala-scan peptide ELISA, row G, run 2
T17 construct: substitution is already in the entry; also called pep15
T17 peptide: Biotin-LEDMPVDPDNEAAEM
Protocol: as §1

asyn_113-127_126A [18] = target: T18, asyn_113-127_126A (human); test: Ala-scan peptide ELISA, row G, run 2
T18 construct: substitution is already in the entry; also called pep16
T18 peptide: Biotin-LEDMPVDPDNEAYAM
Protocol: as §1

asyn_113-127_118A [19] = target: T1, asyn_113-127_118A; test: Ala-scan peptide ELISA, row H, run 1
Protocol: as §1

asyn_113-127_124G [20] = target: T2, asyn_113-127_124G; test: Ala-scan peptide ELISA, row H, run 1
Protocol: as §1

asyn_113-127_127A [21] = target: T3, asyn_113-127_127A; test: Ala-scan peptide ELISA, row H, run 1
Protocol: as §1

asyn_113-127_123A [22] = target: T4, asyn_113-127_123A; test: Ala-scan peptide ELISA, row H, run 1
Protocol: as §1

asyn_113-127_113A [23] = target: T5, asyn_113-127_113A; test: Ala-scan peptide ELISA, row H, run 1
Protocol: as §1

[24] = target: T6, biotinylated human alpha-synuclein; test: Ala-scan peptide ELISA, row H, run 1
Protocol: as §1

asyn_113-127_120A [25] = target: T7, asyn_113-127_120A; test: Ala-scan peptide ELISA, row H, run 1
Protocol: as §1

asyn_113-127_124P [26] = target: T8, asyn_113-127_124P; test: Ala-scan peptide ELISA, row H, run 1
Protocol: as §1

asyn_113-127_121A [27] = target: T9, asyn_113-127_121A; test: Ala-scan peptide ELISA, row H, run 1
Protocol: as §1

asyn_113-127_116A [28] = target: T10, asyn_113-127_116A; test: Ala-scan peptide ELISA, row H, run 1
Protocol: as §1

asyn_113-127_115A [29] = target: T11, asyn_113-127_115A; test: Ala-scan peptide ELISA, row H, run 1
Protocol: as §1

asyn_113-127_117A [30] = target: T12, asyn_113-127_117A; test: Ala-scan peptide ELISA, row H, run 1
Protocol: as §1

asyn_113-127 [31] = target: T13, asyn_113-127; test: Ala-scan peptide ELISA, row H, run 1
Protocol: as §1

asyn_113-127_119A [32] = target: T14, asyn_113-127_119A; test: Ala-scan peptide ELISA, row H, run 1
Protocol: as §1

asyn_113-127_114A [33] = target: T15, asyn_113-127_114A; test: Ala-scan peptide ELISA, row H, run 1
Protocol: as §1

asyn_113-127_122A [34] = target: T16, asyn_113-127_122A; test: Ala-scan peptide ELISA, row H, run 1
Protocol: as §1

asyn_113-127_125A [35] = target: T17, asyn_113-127_125A; test: Ala-scan peptide ELISA, row H, run 1
Protocol: as §1

asyn_113-127_126A [36] = target: T18, asyn_113-127_126A; test: Ala-scan peptide ELISA, row H, run 1
Protocol: as §1

B1: 20H4 (antibody, rat IgG2b, V domains shown)
VH: AVQLVESGGGLVQPKESLKISCAASGFTFSNAAMYWVRQAPGKGLELLARIRTKPNNYATYHADSVKGRFTISRDDSQSMVYLHMGNLKTEDTAMYYCTADMATGDYWGPGVMVTVSS
VL: DIQMTQSPPVLSVSVGDRVTLSCKASQNINKNLDWYQQKHGEAPKPLIYSTNNLQTGVPSRFSGSGSGTDYTLTISSLQPEDVATYYCYQYKSAWTFGGGTKLELR
notes: also called clone 20H4; rat 20H4
For B1, the A450 (asyn_113-127_118A [1]) was 0.109 OD, the A450 (asyn_113-127_124G [2]) was 0.095 OD and the A450 (asyn_113-127_127A [3]) was 0.092 OD. For the same binder, the A450 (asyn_113-127_123A [4]) was 0.103 OD, the A450 (asyn_113-127_113A [5]) was 0.095 OD and the A450 [6] was 0.152 OD. The A450 (asyn_113-127_120A [7]) was 0.072 OD, the A450 (asyn_113-127_124P [8]) was 0.048 OD and the A450 (asyn_113-127_121A [9]) was 0.097 OD. For the same binder, the A450 (asyn_113-127_116A [10]) was 0.101 OD, the A450 (asyn_113-127_115A [11]) was 0.057 OD and the A450 (asyn_113-127_117A [12]) was 0.108 OD. For the same binder, the A450 (asyn_113-127 [13]) was 0.089 OD, the A450 (asyn_113-127_119A [14]) was 0.05 OD and the A450 (asyn_113-127_114A [15]) was 0.093 OD. The A450 (asyn_113-127_122A [16]) was 0.048 OD, the A450 (asyn_113-127_125A [17]) was 0.049 OD and the A450 (asyn_113-127_126A [18]) was 0.101 OD. For the same binder, the A450 (asyn_113-127_118A [19]) was 0.069 OD, the A450 (asyn_113-127_124G [20]) was 0.065 OD and the A450 (asyn_113-127_127A [21]) was 0.066 OD. The A450 (asyn_113-127_123A [22]) was 0.068 OD, the A450 (asyn_113-127_113A [23]) was 0.068 OD and the A450 [24] was 0.086 OD. It also gave an A450 (asyn_113-127_120A [25]) of 0.063 OD, an A450 (asyn_113-127_124P [26]) of 0.049 OD and an A450 (asyn_113-127_121A [27]) of 0.068 OD. For the same binder, the A450 (asyn_113-127_116A [28]) was 0.071 OD, the A450 (asyn_113-127_115A [29]) was 0.051 OD and the A450 (asyn_113-127_117A [30]) was 0.071 OD. For the same binder, the A450 (asyn_113-127 [31]) was 0.063 OD, the A450 (asyn_113-127_119A [32]) was 0.048 OD and the A450 (asyn_113-127_114A [33]) was 0.061 OD. The A450 (asyn_113-127_122A [34]) was 0.049 OD, the A450 (asyn_113-127_125A [35]) was 0.047 OD and the A450 (asyn_113-127_126A [36]) was 0.07 OD.
